The values below come from US8957029 (MAX PLANCK GESELLSCHAFT ZUR FORDERUNG DER WISSENSCHAFTEN E V, dated 2015).

For this assay, the target named is non-muscle actin. Nature of the assay: F-actin co-sedimentation, peptide fluorescence in pellet over total, hyperbolic fit.

No end group written: not given here. fluorescein = fluorescein tag at the N-terminus

B1: F-Lifeact (chemically synthesized 17aa Lifeact peptide tagged with fluorescein at its N-terminus) (peptide)
peptide: fluorescein-MGVADLIKKFESISKEE
notes: also called fluorescein conjugated Lifeact; F-Lifeact peptide
One may read the Kd as a measure of binding affinity in units of concentration. Molecule B1 returned a Kd of 5.4 µM. In other words, the single-digit micromolar range.
